According to patent US20230148181A1, “ENZYME FOR THE CONVERSION OF CHLOROGENIC ACID INTO ISOCHLOROGENIC ACID” (UNIVERSITE DE LORRAINE, priority 2020, published 2023):

Tests used:
Format in all cases: biochemical
[1] = bioconversion of chlorogenic acid from green coffee (Coffea canephora) extract into 3,5-DCQ by IbGDSL from P. pastoris
Description: The bioconversion reaction of CGA into 3,5-DCQ was also carried out from a green coffee (Coffea canephora) extract whose composition is indicated in FIG. 7A. This green coffee extract, comprising a CGA concentration equivalent to 10 mM and bioconverted over a period of 50 hours, at 30° C. and pH 6, led to a new extract whose composition is shown in FIG. 7B. […] Furthermore, no other caffeic acid-containing substrate than chlorogenic acid is biotransformed as no decrease in peaks is observed except for that corresponding to CGA. Bioconversion of green coffee extract with IbGDSL increases the 3,5-DCQ content initially present in the extract 4.5-fold (200 mg/L at T0 and 900 mg at T50h) for a starting CGA concentration equivalent to 10 mM. Bioconversion of CGA into 3,5-DCQ from the green coffee extract was performed after 4 and 7 days, in order to analyse the effect of a reaction with GDSL taking place over a long period of time (FIG. 9). […] The concentration of the IbGDSL enzyme obtained by fermentation of P. pastoris accelerates the reaction speed of the conversion of CGA into 3,5-DCQ (FIG. 10). It is noticed that the same level of 3,5-DCQ concentration can be obtained for enzyme concentration factors of 10-, 20- and 37-fold after 60 h of bioconversion.

[2] = bioconversion of pure CGA into 3,5-DCQ by P. pastoris culture or supernatant expressing IbGDSL
Description: The bioconversion of CGA into 3,5-DCQ in vivo requires the establishment of a highly metabolically active P. pastoris culture. The yeasts are cultured in nutrient medium containing a 100 mM potassium phosphate buffer with a pH adjusted to pH 6.0. This allows the medium in which the enzyme obtained from the microbial cells and the substrate will be in contact, to be maintained at pH 6. After establishing an inoculum of 25 mL of yeast culture overnight at 30° C. under agitation of 250-300 rpm, this is used to inoculate a volume of 100-200 mL of nutrient medium in such a way as to obtain an OD600nm around 1. To this culture 0.5% methanol is added in order to initiate the production of IbGDSL. The addition of methanol is repeated every 24 hours to maintain the level of induction of protein production. […]
The first step of this experiment is to show whether the IbGDSL produced by P. pastoris is capable of converting CGA into 3,5-DCQ knowing that the original enzyme could potentially be glycosylated three-fold and that the glycan trees generated by P. pastoris are not comprised and organised in the same way as the plant glycan trees. These differences could directly influence the stability and prevent the proper activity of the enzyme. To do so, supernatants from two P. pastoris cultures, one transformed with the empty vector (negative control) and the other with the vector carrying the gene encoding IbGDSL were recovered after 3 days of methanol induction. These supernatants were incubated at pH 6.5 with 10 mM chlorogenic acid for 30 minutes at 36° C. The enzymatic reaction was then stopped with the addition of ethanol and analysed by UPLC-MS.
The second step of this experiment is to show whether the CGA directly added to the P. pastoris culture medium expressing the enzyme could be directly converted into 3,5-DCQ. The objective is to avoid the purification step of the enzyme if necessary.
[…] This experiment was conducted at 30° C., the ideal temperature for the culture and growth of the P. pastoris organism.

[3] = in vitro enzyme assay of purified recombinant IbGDSL (produced in N. benthamiana): conversion of CGA into 3,5-DCQ, UPLC-MS
Description: The in vitro enzyme assays are conducted on the purified recombinant enzyme produced in a plant system. After 6 days of co-culture, N. benthamiana leaves agro-infiltrated with the vector carrying the gene of interest, are harvested and ground in extraction buffer (20 mM sodium phosphate, 0.5 M NaCl, pH 7.4). The extract is then centrifuged and the supernatant containing all the soluble proteins including IbGDSL is recovered and sterilised by 0.2 μm filtration. Protein purification is then conducted according to the supplier's instructions on Nickel columns (HisTrap HP-GE HEALTHCARE). […]
Enzyme assays are performed in a 50 μl volume with 200-400 ng of the purified protein (that is a few μl). The optimal reaction pH will be determined using a polybuffer (0.1 M Tris/20 mM MES/0.1 M acetic acid) from which a pH range of 4 to 9 will be constructed. […]
3,5-DCQ quantification is done by measuring the area of the peak of a 3,5-DCQ standard at 330 nm. […] The contents of the other compounds (chlorogenic acid and the other DCQ isomers) are expressed as 3,5-DCQ equivalents. The content is calculated according to the following formula for a compound: […]
A pH range between 4 and 9 was established to determine the optimal pH for the conversion of CGA into 3,5-DCQ by virtue of IbGDSL. […] From the curve obtained it was determined that the optimal reaction pH is between 6 and 7 (FIG. 3A). […]

B1: IbGDSL: recombinant GDSL esterase/lipase enzyme of Ipomoea batatas (SEQ ID No. 1) converting chlorogenic acid into isochlorogenic acid (protein)
chain: MAAAAPSSSLLGVLMLLASIGYAAACYSAVFGFGDSLTDAGNLIRLEPDGTVPHMYFPPYGETYFDKPTGRCSDGRLIVDLIAQHYGLPLPPPSIPASLEGDKNRLRAGVNFAVVGSRALDAQFYEQRDIFDTVTNVSMTDQLNWFKELLPSLCSSPHDCKELLDGSLFVLGEFGGNDYTHSLLSGKGINVIRPFIPIVTRAIAQAVHELVELGARTVMIPSVLPLGCAASYLTYYPSPNPDDYDELGCLIWVNEMASYHNQLLQQQLAHVRELHPYANIVFADIYNAAMEVYQGPDTYGFSGGALRACCGGGGPYNFNTSAQCGNEGATACDNPSSYVNWDGYHLTEAAYQCITTGLLEGPYTYPRMKNLCRFDSRKTSRVAQI
modifications: Ipomoea batatas
product specificity of the bioconversion ([1]; green coffee extract equivalent to 10 mM CGA, 50 hours, 30° C., pH 6): exclusively catalyses the formation of 3,5-DCQ | 3,5-DCQ content at T50h ([1]; starting CGA equivalent to 10 mM, 30° C., pH 6): 900 mg | increase of the 3,5-DCQ content initially present in the extract ([1]; starting CGA equivalent to 10 mM, T50h versus T0): 4.5 fold | bioconversion yield of CGA into 3,5-DCQ ([2]; 10 mM CGA added directly to culture, pH 6, 30° C., 3 days, stoichiometric limit 50%): around 44% | maximum yield of conversion of pure CGA into 3,5-DCQ ([2]; after 50 hours of bioconversion, 5- and 7.5-mM starting CGA): 32% | 3,5-DCQ content, maximum amounts ([2]; after 50 hours of bioconversion, starting pure CGA 7.5 and 9 mM): ~1.2 g/L | activity of enzyme secreted in P. pastoris supernatant (3,5-DCQ peak) ([2]; supernatant after 3 days methanol induction, pH 6.5, 10 mM chlorogenic acid, 30 minutes at 36° C.): functional | CGA concentration from which a slowing down of the enzyme activity is observed ([3]; pH 6.5, 30 minutes of incubation at 36° C.): ≥ 10 mM | temperature of maximum conversion ([3]; purified IbGDSL, 10 mM CGA, pH 6.5, temperature range 15-45° C.): 37 °C
